Laboratory results: the supplement of paper PMC9112550, “Optimization of the antimicrobial peptide Bac7 by deep mutational scanning” (BMC Biology, 2022)

Tested on: Escherichia coli TOP10
Assay: shrunken log2 fold change of peptide-encoding DNA abundance (4.5 h post-induction vs induction); higher = less antimicrobial activity (less host growth inhibition)
Conditions: time post-induction: 4.5 h; library: site-saturation at positions 5, 18, 19, 20
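Further: peptides expressed intracellularly from a pBAD plasmid library in pooled LB shake-flask culture, induced with 0.3% L-arabinose, DNA abundance read by NGS, three biological replicates, DESeq2 with apeglm shrinkage.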

Sequence	shrunken log2 fold change
RRIRPRPPRLPRPRPRPTAWPRP	0.666
RRIRERPPRLPRPRPRPSVQPRP	-0.204
RRIRLRPPRLPRPRPRPINAPRP	-0.177
RRIRERPPRLPRPRPRPVTIPRP	-0.233
RRIRARPPRLPRPRPRPAGFPRP	0.365
RRIRDRPPRLPRPRPRPWTLPRP	-0.424
RRIRMRPPRLPRPRPRPICGPRP	0.237
RRIRRRPPRLPRPRPRPRHWPRP	0.551
RRIRVRPPRLPRPRPRPQLQPRP	-0.104
RRIRRRPPRLPRPRPRPTMQPRP	0.275
RRIRSRPPRLPRPRPRPRERPRP	0.431
RRIRIRPPRLPRPRPRPTSNPRP	-0.807
RRIRMRPPRLPRPRPRPVFMPRP	-0.202
RRIRYRPPRLPRPRPRPTMPPRP	-0.725
RRIRYRPPRLPRPRPRPVCFPRP	-0.674
RRIRGRPPRLPRPRPRPVLSPRP	0.238
RRIRFRPPRLPRPRPRPMFDPRP	-0.155
RRIRSRPPRLPRPRPRPVSHPRP	-0.188
RRIRPRPPRLPRPRPRPEYDPRP	0.101
RRIRDRPPRLPRPRPRPHEQPRP	-0.0062
RRIRHRPPRLPRPRPRPGGKPRP	-0.0185
RRIRVRPPRLPRPRPRPTPWPRP	0.294
RRIRLRPPRLPRPRPRPSYRPRP	-0.242
RRIRQRPPRLPRPRPRPQCYPRP	-0.168
RRIRLRPPRLPRPRPRPHYFPRP	-0.404

Sequence	shrunken log2 fold change
RRIRIRPPRLPRPRPRPWMYPRP	-0.184
RRIRYRPPRLPRPRPRPNIMPRP	-1.42
RRIRVRPPRLPRPRPRPEREPRP	0.586
RRIRSRPPRLPRPRPRPADPPRP	0.0724
RRIRARPPRLPRPRPRPCDPPRP	-0.106
RRIRKRPPRLPRPRPRPEYDPRP	1.13
RRIRYRPPRLPRPRPRPNDLPRP	0.018
RRIRFRPPRLPRPRPRPMADPRP	-0.00574
RRIRDRPPRLPRPRPRPFHRPRP	-0.261
RRIRHRPPRLPRPRPRPQREPRP	-0.0507
RRIRSRPPRLPRPRPRPIICPRP	-0.258
RRIRSRPPRLPRPRPRPNTYPRP	-0.232
RRIRTRPPRLPRPRPRPIDHPRP	-0.263
RRIRLRPPRLPRPRPRPWRRPRP	0.0451
RRIRNRPPRLPRPRPRPFQIPRP	-0.121
RRIRSRPPRLPRPRPRPIMIPRP	-0.426
RRIRRRPPRLPRPRPRPGANPRP	0.208
RRIRVRPPRLPRPRPRPGAYPRP	-0.0376
RRIRTRPPRLPRPRPRPHGWPRP	-0.0327
RRIRVRPPRLPRPRPRPPHQPRP	0.0363
RRIRPRPPRLPRPRPRPMGPPRP	-0.248
RRIRWRPPRLPRPRPRPTDQPRP	0.203
RRIRFRPPRLPRPRPRPVHMPRP	-0.0472
RRIRMRPPRLPRPRPRPECPPRP	0.43
RRIRKRPPRLPRPRPRPAIKPRP	0.191

Sequence	shrunken log2 fold change
RRIRARPPRLPRPRPRPCHSPRP	0.0213
RRIRHRPPRLPRPRPRPNYDPRP	-0.471
RRIRHRPPRLPRPRPRPYRCPRP	0.0121
RRIRARPPRLPRPRPRPEYIPRP	0.0332
RRIRNRPPRLPRPRPRPFQKPRP	-0.185
RRIRQRPPRLPRPRPRPSRSPRP	-0.117
RRIRERPPRLPRPRPRPGRFPRP	0.0216
RRIRMRPPRLPRPRPRPWSEPRP	0.0897
RRIRKRPPRLPRPRPRPTHLPRP	0.149
RRIRKRPPRLPRPRPRPDSQPRP	0.0697
RRIRYRPPRLPRPRPRPEYQPRP	-0.00141
RRIRDRPPRLPRPRPRPNVHPRP	-0.303
RRIRNRPPRLPRPRPRPTYRPRP	-0.0805
RRIRLRPPRLPRPRPRPQCPPRP	-0.266
RRIRLRPPRLPRPRPRPILVPRP	-0.157
RRIRDRPPRLPRPRPRPPALPRP	0.239
RRIRQRPPRLPRPRPRPKMWPRP	1
RRIRFRPPRLPRPRPRPEQWPRP	-0.156
RRIRFRPPRLPRPRPRPVDQPRP	0.0138
RRIRHRPPRLPRPRPRPIVSPRP	-0.0219
RRIRKRPPRLPRPRPRPQNLPRP	0.0263
RRIRIRPPRLPRPRPRPLTVPRP	-0.114
RRIRKRPPRLPRPRPRPIKAPRP	0.211
RRIRWRPPRLPRPRPRPQYAPRP	-0.0905
RRIRPRPPRLPRPRPRPSYAPRP	-0.106
